{
  "source": "patent US20130288364",
  "about": "“ENGINEERED KINETOCHORES AND USES THEREOF” (Whitehead Institute for Biomedical Research, published 2013)",
  "binders": {"B1": {"name": "alpha-satellite 20 bp probe (bp 21-40) (dsDNA)", "DNA 1": "CCTTTGAGGCCTTCGTTGGA", "DNA 2": "TCCAACGAAGGCCTCAAAGG"}},
  "key": {"[1]": {"molecular_target": "CENP-T/CENP-W complex (Homo sapiens, UniProt Q96BT3;Q5EE01 Q96BT3:1-561,Q5EE01:1-88)", "sequence (Q96BT3 whole entry, chain 1 of 2)": "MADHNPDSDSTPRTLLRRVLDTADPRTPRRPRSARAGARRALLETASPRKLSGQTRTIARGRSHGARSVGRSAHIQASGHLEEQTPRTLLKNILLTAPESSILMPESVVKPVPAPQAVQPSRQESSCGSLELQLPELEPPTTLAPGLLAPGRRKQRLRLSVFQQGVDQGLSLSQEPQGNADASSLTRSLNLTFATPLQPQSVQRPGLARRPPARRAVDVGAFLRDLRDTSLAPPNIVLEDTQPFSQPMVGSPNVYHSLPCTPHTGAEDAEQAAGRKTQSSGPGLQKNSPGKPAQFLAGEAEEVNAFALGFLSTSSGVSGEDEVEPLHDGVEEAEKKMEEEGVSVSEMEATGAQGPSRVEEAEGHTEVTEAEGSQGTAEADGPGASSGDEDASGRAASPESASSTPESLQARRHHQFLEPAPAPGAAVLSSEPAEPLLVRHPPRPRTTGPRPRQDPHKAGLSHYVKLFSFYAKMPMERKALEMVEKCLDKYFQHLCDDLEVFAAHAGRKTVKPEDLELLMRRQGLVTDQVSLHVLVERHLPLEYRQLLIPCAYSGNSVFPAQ", "sequence (Q5EE01 whole entry, chain 2 of 2)": "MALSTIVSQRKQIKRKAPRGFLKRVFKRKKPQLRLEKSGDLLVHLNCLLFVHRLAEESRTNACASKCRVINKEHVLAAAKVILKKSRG", "experiment": "EMSA; 10 mM Tris pH 7.9, 150 mM KCl, 1 mM EDTA, 4 mM DTT, room temperature; 500 ng protein, 50 ng probe", "settings": "tags: 6xHis-CENP-T (full length), untagged CENP-W, co-expressed from pST39 in bacteria; Gene ID 80152 / 387103; label: biotin", "protocol": "(§1) In vitro DNA binding was assessed by Electro Mobility Shift Assay (EMSA). 500 ng of the indicated protein was incubated for 10 minutes at room temperature in binding buffer (10 mM Tris pH 7.9, 150 mM KCl, 1 mM EDTA, 4 mM DTT. 50 ng of a 20 bp biotinylated double stranded DNA probe […] corresponding to bp 21-40 of the alpha satellite DNA sequence was then added, and incubated for a further 20 minutes. Samples were then run on a 4% non denaturing arylamide gel, semi-dry transferred to nitrocellulose membrane, and blots processed using the Chemiluminescent nucleic acid detection system (Thermo) according to manufacturers instructions. Biotinylated DNA probe with detected with HRP-coupled streptavidin (Thermo)."}, "[2]": {"molecular_target": "CENP-T-ΔN/CENP-W complex (Homo sapiens, UniProt Q96BT3;Q5EE01 Q96BT3:288-561,Q5EE01:1-88)", "sequence (Q96BT3 288-561, stated change not applied, chain 1 of 2)": "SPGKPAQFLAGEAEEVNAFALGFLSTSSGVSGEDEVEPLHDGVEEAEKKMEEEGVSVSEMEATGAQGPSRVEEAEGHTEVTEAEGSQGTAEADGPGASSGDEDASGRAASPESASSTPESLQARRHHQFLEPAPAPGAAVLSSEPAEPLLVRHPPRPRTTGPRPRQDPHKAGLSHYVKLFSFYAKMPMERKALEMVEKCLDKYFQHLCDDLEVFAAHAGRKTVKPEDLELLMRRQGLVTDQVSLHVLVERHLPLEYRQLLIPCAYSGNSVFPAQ", "sequence (Q5EE01 whole entry, stated change not applied, chain 2 of 2)": "as the sequence (Q5EE01 whole entry, chain 2 of 2) above", "experiment": "EMSA; retains DNA binding activity", "settings": "tags: 6xHis-CENP-T, untagged CENP-W; label: biotin", "protocol": "as §1"}},
  "data": [
    {"binder": "B1", "values": [
      {"measurement": "binding result", "setting": "[1]", "value": "binds"},
      {"measurement": "binding result", "setting": "[2]", "value": "binds"}
    ]}
  ]
}
